Experimental data reported in patent US20240166720A1 (Janssen / Centocor, published 2024).

Experiments:
[1] = molecular target: T1, recombinant CD40 receptor (hu CD40) (human, UniProt P25942 21-193, limits assumed, biotinylated in the MSD assay (site not stated)); assay: MSD electrochemiluminescence plate assay: biotinylated CD40 (10 ug/ml) on streptavidin plates, three-fold dilutions of the test article, anti-human Fc detection (Example 4)
T1 construct: also called biotinylated CD40
Procedure: Streptavidin sensor plates were coated with 10 ug/ml of biotinylated CD40 overnight at 4° C. The plates were washed 3× with PBS with 0.05% Tween 20 (PBST). Three-fold dilutions series of the test articles were prepared in PBS with 0.2% bovine serum albumin and 50 ul was applied to the plates for 1 hour at RT with shaking. Plates were washed 3× with PBST and anti-human Fc detection reagent at 2 ug/ml final concentration was applied for 1 hour at RT with shaking. The plates were washed 3× with PBST and 150 ul of 1× read buffer was added to the plates and data was collected on MSD instrument. Data was imported into […] Prism 8 software and analyzed and plotted based on the results three separate experiments.

[2] = molecular target: native CD40 receptor on HEK-Blue CD40L reporter cells (UniProt P25942 21-277, limits assumed); assay: cell-based or functional assay
Sequence of native CD40 receptor on HEK-Blue CD40L reporter cells (P25942 21-277 limits assumed): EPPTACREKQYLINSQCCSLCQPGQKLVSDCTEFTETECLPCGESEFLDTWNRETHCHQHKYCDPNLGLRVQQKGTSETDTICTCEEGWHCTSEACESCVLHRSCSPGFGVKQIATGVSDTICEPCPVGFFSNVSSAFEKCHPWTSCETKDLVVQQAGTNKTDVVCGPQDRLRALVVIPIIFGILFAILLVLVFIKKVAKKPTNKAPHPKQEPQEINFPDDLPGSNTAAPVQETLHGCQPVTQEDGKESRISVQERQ

T1 sequence (P25942 21-193 limits assumed): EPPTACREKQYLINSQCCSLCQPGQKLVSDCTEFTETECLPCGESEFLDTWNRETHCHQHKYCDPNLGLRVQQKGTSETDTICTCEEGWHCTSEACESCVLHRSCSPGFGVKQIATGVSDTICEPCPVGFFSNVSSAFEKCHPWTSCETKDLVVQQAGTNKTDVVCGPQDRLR

| EC50 (read off the curve) [1] | HEK-Blue reporter assay activity, fold against TPP000161222 [2] | binding result [1] | Binder |
| --- | --- | --- | --- |
| ~0.09 µg/mL | 100 fold |  | TPP000182983 (Fc fusion, Single chain trimeric CD40L fused to the C-terminus of the Fc; also called C4LW16) HTCPPCPAPEAAGGPSVFLFPPKPKDTLMISRTPEVTCVVVSVSHEDPEVKFNWYVDGVEVHNAKTKPREEQYNSTYRVVSVLTVLHQDWLNGKEYKCKVSNKALPAPIEKTISKAKGQPREPQVYTLPPSREEMTKNQVSLTCLVKGFYPSDIAVEWESNGQPENNYKTTPPVLDSDGSFFLYSKLTVDKSRWQQGNVFSCSVMHEALHNHYTQKSLSLSPGGGGGSNPQIAAHVISEASSKTTSVLQWAEKGYYTMSNNLVTLENGKQLTVKRQGLYYIYAQVTFCSNREASSQAPFIASLCLKSPGRFERILLRAANTHSSAKPCGQQSIHLGGVFELQPGASVFVNVTDPSQVSHGTGFTSFGLLKLGGGSGGGSGGGSNPQIAAHVISEASSKTTSVLQWAEKGYYTMSNNLVTLENGKQLTVKRQGLYYIYAQVTFCSNREASSQAPFIASLCLKSPGRFERILLRAANTHSSAKPCGQQSIHLGGVFELQPGASVFVNVTDPSQVSHGTGFTSFGLLKLGGGSGGGSGGGSNPQIAAHVISEASSKTTSVLQWAEKGYYTMSNNLVTLENGKQLTVKRQGLYYIYAQVTFCSNREASSQAPFIASLCLKSPGRFERILLRAANTHSSAKPCGQQSIHLGGVFELQPGASVFVNVTDPSQVSHGTGFTSFGLLKL |
|  |  | binds | TPP000161222 (Fc fusion, This protein had only 38.76% monomer after protein A; also called C40W33; JNJ75347415) IAAHVISEASSKTTSVLQWAEKGYYTMSNNLVTLENGKQLTVKRQGLYYIYAQVTFCSNREASSQAPFIASLCLKSPGRFERILLRAANTHSSAKPCGQQSIHLGGVFELQPGASVFVNVTDPSQVSHGTGFTSFGLLKLEGKSSGSGSQIAAHVISEASSKTTSVLQWAEKGYYTMSNNLVTLENGKQLTVKRQGLYYIYAQVTFCSNREASSQAPFIASLCLKSPGRFERILLRAANTHSSAKPCGQQSIHLGGVFELQPGASVFVNVTDPSQVSHGTGFTSFGLLKLEGKSSGSGSQIAAHVISEASSKTTSVLQWAEKGYYTMSNNLVTLENGKQLTVKRQGLYYIYAQVTFCSNREASSQAPFIASLCLKSPGRFERILLRAANTHSSAKPCGQQSIHLGGVFELQPGASVFVNVTDPSQVSHGTGFTSFGLLKLVERKSCVECPPCPAPPVAGPSVFLFPPKPKDTLMISRTPEVTCVVVDVSHEDPEVQFNWYVDGVEVHNAKTKPREEQFNSTFRVVSVLTVVHQDWLNGKEYKCKVSNKGLPAPIEKTISKTKGQPREPQVYTLPPSREEMTKNQVSLTCLVKGFYPSDIAVEWESNGQPENNYKTTPPMLDSDGSFFLYSKLTVDKSRWQQGNVFSCSVMHEALHNHYTQKSLSLSPGK |
